How the values were obtained:
Assay in all cases: ELISA
Conditions in all cases: both partners purified
[1] = molecular target: SARS-CoV-2 wild-type (WT) receptor-binding domain (RBD) (SARS-CoV-2, wild type (Wuhan-Hu-1 …, UniProt P0DTC2))
[2] = molecular target: T1, angiotensin-converting enzyme-2 (ACE2), biotinylated (Homo sapiens, assumed, UniProt Q9BYF1, biotin)
T1 construct: also called host protein

[3] = molecular target: SARS-CoV-2 wild-type (WT) N-terminal domain (NTD) of the spike protein (SARS-CoV-2, wild type (Wuhan-Hu-1 …, UniProt P0DTC2))

T1 sequence (Q9BYF1 18-805): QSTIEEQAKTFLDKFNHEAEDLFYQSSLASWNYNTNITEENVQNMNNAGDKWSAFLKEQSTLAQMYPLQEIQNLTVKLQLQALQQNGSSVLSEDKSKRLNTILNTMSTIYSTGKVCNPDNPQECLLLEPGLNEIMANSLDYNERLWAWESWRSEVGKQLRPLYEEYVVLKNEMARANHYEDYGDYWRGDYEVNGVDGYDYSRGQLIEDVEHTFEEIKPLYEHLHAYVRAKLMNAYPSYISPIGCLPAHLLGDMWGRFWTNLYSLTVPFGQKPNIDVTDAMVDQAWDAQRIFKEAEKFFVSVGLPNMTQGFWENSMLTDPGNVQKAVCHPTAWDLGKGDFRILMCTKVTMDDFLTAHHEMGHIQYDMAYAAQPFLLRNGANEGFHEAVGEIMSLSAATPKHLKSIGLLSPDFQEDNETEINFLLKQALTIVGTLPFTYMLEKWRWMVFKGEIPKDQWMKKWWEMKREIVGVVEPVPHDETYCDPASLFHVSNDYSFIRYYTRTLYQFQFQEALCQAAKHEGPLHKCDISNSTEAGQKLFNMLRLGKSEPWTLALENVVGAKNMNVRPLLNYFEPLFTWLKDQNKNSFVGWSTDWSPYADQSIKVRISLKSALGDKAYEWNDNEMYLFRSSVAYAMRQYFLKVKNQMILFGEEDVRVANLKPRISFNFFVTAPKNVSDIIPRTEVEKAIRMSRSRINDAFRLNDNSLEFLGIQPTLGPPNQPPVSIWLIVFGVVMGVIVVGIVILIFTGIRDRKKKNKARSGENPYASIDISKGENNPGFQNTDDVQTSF

| Binder | binding result [1] | binding result [2] | binding result [3] |
| --- | --- | --- | --- |
| AB5-16 (antibody, V domains shown) VH: QALMVQSEAAVKKPGASVKVSCKATGDAFSNHYLHWLRQAPGQGLEWLGIINPGAGSTTYAQKFQGRLTVTTDTSTNTVYMELSSLRSDDTAVYYCARDGAFIPSSYYYGMDVWGQGTTVTVSS VL: EIVLTQSPGTLALSPGERATLSCRASQSVSSSYLAWYQQKPGQAPRLLIYGASSRATGVPDRFSGSGSGTDFTLTVSSLEPEDFAVYYCQQREAFGQGTKVEVK | binds | no binding | – |
| AB5-20 (antibody, V domains shown) VH: QVQLVESGGGVVQPGRSLRLSCTASGFTFRHYGLHWVRQAPGKGLEWVAVILYDGSDEDYRDSVKGRFTISRDNSKNTLYLQMNSLRPEDTAVYYCAKQSGPYCSGGNCYSGHFDYWGQGTPVSVSS VL: DIQMTQSPSSLSASVGDRVTITCQASQDISKSLSWYEQKPGKAPRLLIFEASNLETGVPSRFSGSGSGTSFSFTISSLQPEDFATYYCQQYDNVPLTFGGGTKVERK | binds | no binding | – |
| AB6-17 (antibody, V domains shown) VH: QLQLQESGPGLVESSETLSLTCTVSSGSISRSTYYWGWIRQPPGKGMEWIGSISSGGSTYYNPSLNSRVTISIDTSKNQFSLKLRSVTAADTAVYYCARALQWPSPRIDYWAQGTLVTVSS VL: DIQMTQSPSSLSASVGDRVTITCRASQSISSYLNWYQHKPGKAPKLLIYAASSLESGVPSRFTGSGSGTDFTLTIDSLQPEDFATYYCQQSYSTPLFTFGPGTTVDIK | binds | no binding | – |
| AB5-5 (antibody, V domains shown) VH: QISLKESGPTLVQPTQTLTLTCTFSGFSLSSSGVGVGWIRQPPGKALEWLALLYWNDDKRYSPSLRTRLTITKDSSKNQVVLTMTNMDPMDTATYYCAHPRQTTVTTVFGLYPRPAAFDVWGPGTMVTVSS VL: QSFLTQPPSVSGAPGQRVTISCTGSSSNIGAGYGVDWYQQLPGTAPKLLIYDNNNRPSGVPDRFSGSTSGTSASLAITGLHAEDEADYYCQSYDRSLSGSVVFGGGTKLTVL | no binding | – | no binding |
| AB5-12 (antibody, V domains shown) VH: QVQLQESGPGLVRPSQALSLTCTVSGGSISSEGYYWGWIRQHPGKGLEWIGYIYYTGNAYYNPSLQSRIDISVDTSANQFSLRLNSVTAADTAVYYCASDSFKGGFDSWGQGALVTVSS VL: EIVLTQSPTTLSLSPGERATLSCRASQTVSGSVAWYQQKPGQAPRLVIYDVSYRATGIPARFSGSGSGTDFTLTISSLEPEDFAVYYCQERRKAFGQGTTVEIK | no binding | – | no binding |

From publication PMC11893383 (Frontiers in Immunology, 2025)
